In publication PMC12207370, “Macrocyclic Peptide Probes for Immunomodulatory Protein CD59: Potent Modulators of Bacterial Toxin Activity and Antibody‐Dependent Cytotoxicity” (Angewandte Chemie (International Ed. in English), 2025):

Target: T1, biotinylated CD59 (Homo sapiens, UniProt P13987)
T1 construct: Recombinant soluble human CD59 with an additional C-terminal cysteine residue
T1 sequence (P13987 26-102 limits assumed): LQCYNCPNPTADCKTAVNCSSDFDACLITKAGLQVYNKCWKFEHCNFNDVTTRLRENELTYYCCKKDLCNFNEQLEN
Assay: mRNA-display cyclic peptide screen against CD59-biotin, NGS abundance after 6th selection round
Conditions: for Percentage Seq I: counts normalised by total counts of sample Seq I; for Percentage Seq I / Percentage Seq II: percentage of the pool; for Percentage Seq I / Percentage Seq II / Percentage Average / Percentage of the pool, averaged across the two sequencing samples / Percentage of the pool, Seq I / Percentage of the pool, Seq II: sheet R6; for Percentage Seq II: counts normalised by total counts of sample Seq II; for Percentage Average: percentage of the pool averaged across the two sequencing samples; for Counts Seq I / Counts Seq II: raw NGS counts of peptide sequence; for Counts Seq I: sequencing sample Seq I; for Counts Seq I / Counts Seq II / Counts (raw counts for peptide sequence), Seq I / Counts (raw counts for peptide sequence), Seq II: sheet R6 (6th selection round); for Counts Seq II: sequencing sample Seq II; for Counts (raw counts for peptide sequence), Seq I: NGS sample Seq I; for Counts (raw counts for peptide sequence), Seq II: NGS sample Seq II; for Percentage of the pool, averaged across the two sequencing samples: average of Seq I and Seq II; for Percentage of the pool, Seq I: counts normalised by total counts of NGS sample Seq I; for Percentage of the pool, Seq II: counts normalised by total counts of NGS sample Seq II
From the text: To discover novel non‐protein CD59 ligands, we screened a library of 10^12 cyclic peptides against CD59 using mRNA‐display (Figure 2a).^[ [23], [24], [25], [26], [27], [28], [29] ^] Briefly, an mRNA library was designed in which the start codon was reprogrammed from Met to N‐chloroacetyl‐D‐Tyr (ClAc‐D‐Tyr), followed by 10–12 randomly encoded natural amino acids, a Cys residue, a (GlySer)3 linker, and a stop codon. […] The total library diversity was 1.51 × 10^13 molecules, comprising 5.02 × 10^12 molecules of each macrocycle size, covering a subset of the maximum theoretical diversity of this library design. Following in vitro translation, ClAc‐D‐Tyr spontaneously reacts with either the C‐terminal Cys or a Cys in the random region, yielding macrocyclic thioether peptides. Hits from the library were identified through iterative enrichment and amplification against biotinylated CD59, then immobilized on streptavidin beads. Fifteen hit sequences (CP‐01 to CP‐15), enriched with abundance >1% relative to the total pool of recovered binders after the 6th round of selection, were synthesized by solid phase peptide synthesis (SPPS), without the (Gly‐Ser)3 linker.
Figure 2 Discovery of macrocyclic peptide ligands with nanomolar CD59 affinity using mRNA display. a) The selection process. PCR = polymerase chain reaction, SPPS = solid phase peptide synthesis. b) Table showing details of the peptides with nanomolar affinity for CD59 as well as the binding affinity of the lead inhibitor of CD59, rILYd4. K D values are presented as the average of three technical replicates ± SEM. Structures of all peptides and SPR sensograms are presented in Figures S1 and S2. *indicates the presented sequences are the variable regions of these cyclic peptides; each is flanked by an N‐terminal Ac‐D‐Tyr cyclized to a C‐terminal Cys. R6 abundance (%) is defined as (the given number of NGS reads for a given sequence/the total number of reads of unique sequences observed in NGS)*100 following the 6th selection round. c) Representative sensogram of the interaction between CP‐06 with immobilized CD59 by SPR analysis. Inset showing the equilibrium binding curve of CP‐06 to CD‐59. Below in the box are the association and dissociation rate constants of CP‐06. Concentrations are plotted in descending order from 800‐3.1 nM in line with their position on the legend. […] (nM)'; the box with Kon/Koff has no label of its own / ILYd4: the label may be cut off at the left edge (possibly 'rILYd4') / CP-02, KD: 15.3 ± 0.2, small print, 3 or 8 uncertain / CP-03, KD: 23.4 ± 0.7, small print / CP-06, KD: 11.3 ± 0.0, small print, 3 or 8 uncertain / CP-13, KD: 10.8 ± 0.7, small print, 8 or 6 uncertain / ILYd4, KD: 48.3 ± 1.1, small print, 8 and 3 uncertain
The mRNA-display cyclic peptide screen was performed against CD59-biotin by T.E.M: DNA templates for transcription were generated by PCR in a similar manner to that previously described.^2 RNA oligonucleotides were transcribed from the DNA templates using T7 RNA polymerase and purified by phenol/chloroform extraction followed by ethanol precipitation. Oligonucleotide concentrations were determined spectroscopically by absorbance at 260 nm. In the first selection round a 1:1:1 molar ratio of NNK10/NNK11/NNK12 was used. The procedure for selection rounds 2-6 is described below; round 1 was conducted at twice the scale.
RNA encoding for the peptide library ligated to a puromycin-modified oligonucleotide was […] (final [RNA] = 2.5 µM) using a customised PURE express kit (lacking release factor 1 and methionine, supplemented with […] initiator tRNA acylated with N-chloroacetyl-d-tyrosine prepared as previously described)^3 in a final volume of 5.6 µL for 1 hour at 37 °C.
This mixture was incubated at 42 °C for 1 hour before being diluted to 500 µL with PBS (10 mM Na-PO4 pH 7.4, 2.7 mM KCl, 137 mM NaCl) and 0.5 µL taken for subsequent use in qPCR. […]

Sequence | Percentage Seq I [%] | Percentage Seq II [%] | Percentage Average [%] | Counts Seq I | Counts Seq II | Counts (raw counts for peptide sequence), Seq I | Counts (raw counts for peptide sequence), Seq II | Percentage of the pool, averaged across the two sequencing samples [%] | Percentage of the pool, Seq I [%] | Percentage of the pool, Seq II [%]
SSFREYNHLPCT | 0.598 | 0.694 | 0.646 | 2617 | 299 |  |  |  |  | 
CFAGRPTIDAV | 0.018 | 0.028 | 0.023 | 80 | 12 |  |  |  |  | 
HAFGSRDIAYY |  |  |  |  |  | 52 | 5 | 0.012 | 0.012 | 0.012
CFAARARNNQTV | 0.091 | 0.093 | 0.092 | 396 | 40 |  |  |  |  | 
HSYGSSQIAYH |  |  |  |  |  | 74 | 8 | 0.018 | 0.017 | 0.019
FVTGNRDNTRG |  |  |  |  |  | 80 | 6 | 0.016 | 0.018 | 0.014
GRVRTCPVIV |  |  |  |  |  | 65 | 5 | 0.013 | 0.015 | 0.012
CFLNRASFSGI |  |  |  |  |  | 60 | 6 | 0.014 | 0.014 | 0.014
IARGDWNHQFF |  |  |  |  |  | 56 | 3 | 0.010 | 0.013 | 0.007
STRRDRLGLTC |  |  |  |  |  | 57 | 9 | 0.017 | 0.013 | 0.021
HVFGNGSFTRG | 0.031 | 0.035 | 0.033 | 137 | 15 |  |  |  |  | 
TFRKRLTATCGT | 0.016 | 0.028 | 0.022 | 68 | 12 |  |  |  |  | 
CFSNRISGPAV | 0.197 | 0.214 | 0.205 | 864 | 92 |  |  |  |  | 
CFVSRTQIGSV |  |  |  |  |  | 85 | 2 | 0.012 | 0.019 | 0.00464
FVTGNRDHTSG |  |  |  |  |  | 60 | 4 | 0.011 | 0.014 | 0.009
CFAKRLSLDAL | 0.177 | 0.176 | 0.177 | 774 | 76 |  |  |  |  | 

Sequence | Percentage Seq I [%] | Percentage Seq II [%] | Percentage Average [%] | Counts Seq I | Counts Seq II | Counts (raw counts for peptide sequence), Seq I | Counts (raw counts for peptide sequence), Seq II | Percentage of the pool, averaged across the two sequencing samples [%] | Percentage of the pool, Seq I [%] | Percentage of the pool, Seq II [%]
CFSHRNPTDSI |  |  |  |  |  | 32 | 6 | 0.011 | 0.007 | 0.014
YVYGSRDRC |  |  |  |  |  | 74 | 5 | 0.014 | 0.017 | 0.012
GYLNECHALYTR |  |  |  |  |  | 63 | 9 | 0.018 | 0.014 | 0.021
CFAGRLTIDAG |  |  |  |  |  | 59 | 4 | 0.011 | 0.013 | 0.009
SWTRGNRSSVRG |  |  |  |  |  | 44 | 5 | 0.011 | 0.010 | 0.012
YARGNNASQFF | 0.089 | 0.088 | 0.089 | 391 | 38 |  |  |  |  | 
HVFGDRSFTRG | 0.028 | 0.026 | 0.027 | 124 | 11 |  |  |  |  | 
PAWGNRQIQYY |  |  |  |  |  | 58 | 3 | 0.010 | 0.013 | 0.007
HVSGNRSFTRG | 0.024 | 0.035 | 0.029 | 104 | 15 |  |  |  |  | 
YIRGTQDTFLF |  |  |  |  |  | 46 | 7 | 0.013 | 0.011 | 0.016
CFTQRIASGSK | 0.024 | 0.021 | 0.022 | 105 | 9 |  |  |  |  | 
LLGSSSYVKFWY | 0.253 | 0.265 | 0.259 | 1105 | 114 |  |  |  |  | 
CSRLTSRGWT |  |  |  |  |  | 62 | 5 | 0.013 | 0.014 | 0.012
SRNGIQFTCS | 0.036 | 0.037 | 0.037 | 158 | 16 |  |  |  |  | 
FIRGNSTSVPF |  |  |  |  |  | 46 | 4 | 0.010 | 0.011 | 0.009
SKNGLTFLCN | 0.181 | 0.211 | 0.196 | 794 | 91 |  |  |  |  | 
